# Target: T1, soluble recombinant version of the IGLV3-21^R110-harboring B-cell receptor (monomeric human IgM, 170.5 kDa) (human)
# T1 construct: Produced in 293-HEK cells by transient expression as monomeric human IgM; It was the analyte in solution in the BLI assay; also called soluble IGLV3-21^R110 B-cell receptor; soluble BCR-fragment
# Test: BLI (Octet), antibody captured on anti-human IgG Fc sensor, soluble BCR as analyte, 1:1 model
# Protocol: (§1) Kinetic assays were performed by first immobilizing the anti IGLV3-21^R110 antibodies onto biosensors through an indirect capturing reagent, anti-human IgG Fc antibody. Anti IGLV3-21^R110 antibodies were loaded at a concentration of […] to generate an anti IGLV3-21^R110 antibody capture level of between 0.30 and 0.34 nm. […] The anti IGLV3-21^R110 antibody capture biosensors were then submerged in wells containing the different concentrations of the soluble BCR-fragment for 900 seconds (association stage) followed by a dissociation step of 1200 seconds in running buffer. Steps were performed at a constant shake speed of 1000 rpm. All reagents were used as described by the manufacturer. Sensorgrams were generated after double reference correction (buffer and blank sensors) to compensate for both the natural dissociation of the capture anti IGLV3-21^R110 antibody and also non-specific binding of the soluble BCR-fragment to the sensor surface. […] (KD) were calculated based on the ratio of association (kₐ) and dissociation rate (kd) constants, obtained by fitting sensorgrams with a first order 1:1 binding model using the Fortebio Data Analysis software (Satorius).
# T1 sequence (heavy, as listed by the source limits assumed, chain 1 of 2): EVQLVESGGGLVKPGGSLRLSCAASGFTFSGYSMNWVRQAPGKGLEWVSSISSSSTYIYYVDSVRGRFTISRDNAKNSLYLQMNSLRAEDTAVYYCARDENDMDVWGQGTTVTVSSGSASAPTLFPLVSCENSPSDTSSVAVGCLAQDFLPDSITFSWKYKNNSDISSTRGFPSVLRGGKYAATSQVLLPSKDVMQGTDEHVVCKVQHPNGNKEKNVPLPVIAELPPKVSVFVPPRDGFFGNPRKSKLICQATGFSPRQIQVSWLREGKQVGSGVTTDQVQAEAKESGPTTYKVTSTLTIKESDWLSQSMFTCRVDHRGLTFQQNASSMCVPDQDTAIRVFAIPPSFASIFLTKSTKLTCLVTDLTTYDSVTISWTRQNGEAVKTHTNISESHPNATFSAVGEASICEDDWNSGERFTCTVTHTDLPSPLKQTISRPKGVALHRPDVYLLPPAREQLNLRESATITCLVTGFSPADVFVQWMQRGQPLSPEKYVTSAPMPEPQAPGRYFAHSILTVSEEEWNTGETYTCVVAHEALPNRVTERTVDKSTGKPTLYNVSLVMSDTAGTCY
# T1 sequence (light, as listed by the source limits assumed, chain 2 of 2): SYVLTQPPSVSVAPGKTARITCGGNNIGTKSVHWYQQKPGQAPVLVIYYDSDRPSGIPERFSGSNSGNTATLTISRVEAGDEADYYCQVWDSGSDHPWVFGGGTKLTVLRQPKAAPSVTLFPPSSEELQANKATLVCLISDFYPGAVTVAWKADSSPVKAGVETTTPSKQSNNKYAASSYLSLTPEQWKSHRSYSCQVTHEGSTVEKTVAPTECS
row,Binder,Kd [nM]
1,"HC0-LC0 (antibody, human IgG1, kappa, V domains shown, Chimeric: mAb01-01 VH/VL on human IgG1 / human Ig kappa constant domains; also called chimeric antibody HC0-LC0; HC01 LC01) VH: QVQLQQSGPGLVQPSQSLSITCTVSGFSLTSYGIHWVRQSPGKGLEWLGVIWRGGGTDSNAAFMSRLSITKDNSKSQVFFKMNSLQADDTAIYYCARSRYDEEESMNYWGQGTSVTVSS VL: QIVLTQSPASLSASVGETVTITCRASGNIHSYLAWYQQKQGKSPQLLVYNAKTLADGVPSRFSGSGSGTQYSLKINSLQPEDFGSYYCQHFWNTPPTFGAGTKLELKR",0.121
2,"HC7-LC6 (antibody, human IgG1, kappa, V domains shown, Humanized IgG1 / kappa) VH: QVQLQESGPGLVKPSETLSLTCTVSGFSLTSYGIHWIRQSPGRGLEWIGVIWRGGGTDSNAAFMSRITISRDTSKTQVSLKLGSVTAADTAIYYCARSRYDEEESMNYWGQGTSVTVSS VL: EIVLTQSPSSLSASVGDSVTITCRASGNIHSYLAWYQQKPGKAPKLLIYNAKTLADGVPSRFSGSGSGTQYTLTISSLQPEDFATYYCQHFWNTPPTFGAGTKLELKR",0.175
3,"HC7-LC8 (antibody, human IgG1, kappa, V domains shown, Humanized IgG1 / kappa) VH: QVQLQESGPGLVKPSETLSLTCTVSGFSLTSYGIHWIRQSPGRGLEWIGVIWRGGGTDSNAAFMSRITISRDTSKTQVSLKLGSVTAADTAIYYCARSRYDEEESMNYWGQGTSVTVSS VL: EIVLTQSPATLSLSPGERATLSCRASGNIHSYLAWYQQKPGQAPRLLIYNAKTLADGIPARFSGSGSGTDYTLTISSLEPEDFASYYCQHFWNTPPTFGAGTKLELKR",0.249
4,"HC7-LC7 (antibody, human IgG1, kappa, V domains shown, Humanized IgG1 / kappa) VH: QVQLQESGPGLVKPSETLSLTCTVSGFSLTSYGIHWIRQSPGRGLEWIGVIWRGGGTDSNAAFMSRITISRDTSKTQVSLKLGSVTAADTAIYYCARSRYDEEESMNYWGQGTSVTVSS VL: QIQLTQSPSFLSASVGDSVTITCRASGNIHSYLAWYQQKPGKAPQLLIYNAKTLADGVPSRFSGSGSGTEYTLTISSLQPEDFATYYCQHFWNTPPTFGAGTKLELKR",0.269
5,"HC7-LC9 (antibody, human IgG1, kappa, V domains shown, Humanized IgG1 / kappa) VH: QVQLQESGPGLVKPSETLSLTCTVSGFSLTSYGIHWIRQSPGRGLEWIGVIWRGGGTDSNAAFMSRITISRDTSKTQVSLKLGSVTAADTAIYYCARSRYDEEESMNYWGQGTSVTVSS VL: EIVLTQSPGTLSLSPGERATLSCRASGNIHSYLAWYQQKPGQAPRLLIYNAKTLADGIPDRFSGSGSGTDYTLTISRLEPEDFAVYYCQHFWNTPPTFGAGTKLELKR",0.313

# Target: T1, soluble recombinant version of the …
# Test: BLI (Octet), reference HC0-LC0
# Protocol: as §1
# For the KD values of all humanized antibodies, see Table 3.
row,Binder,fold of the dissociation constant against chimeric antibody HC0-LC0 [fold]
1,"HC7-LC6 (antibody, human IgG1, kappa, V domains shown, Humanized IgG1 / kappa) VH: QVQLQESGPGLVKPSETLSLTCTVSGFSLTSYGIHWIRQSPGRGLEWIGVIWRGGGTDSNAAFMSRITISRDTSKTQVSLKLGSVTAADTAIYYCARSRYDEEESMNYWGQGTSVTVSS VL: EIVLTQSPSSLSASVGDSVTITCRASGNIHSYLAWYQQKPGKAPKLLIYNAKTLADGVPSRFSGSGSGTQYTLTISSLQPEDFATYYCQHFWNTPPTFGAGTKLELKR",≤ 2
